Measurements published in patent US20090047301A1.

How the values were obtained:
[1] = target: HPV16 L2 in HPV16 L1/L2 capsids (pseudovirions, L1/L2 VLPs) (human papillomavirus 16 (HPV16)) (UniProt P03107)
[2] = target: HPV16 L2 in HPV16 L1/L2 capsids (pseudovirions, L1/L2 VLPs) (human papillomavirus 16 (HPV16)) (UniProt P03107); remark: listed apart in the source
[3] = target: HPV18 L2 in HPV18 pseudovirions (human papillomavirus 18 (HPV18)) (UniProt P06793)
[4] = target: HPV16 L2 in HPV16 L1/L2 capsids (pseudovirions, L1/L2 VLPs) (human papillomavirus 16 (HPV16)) (UniProt P03107); assay: HPV16 L1/L2 VLP ELISA
[5] = target: full length HPV16 L2 protein (ELISA and Western blot antigen) (human papillomavirus 16 (HPV16)) (UniProt P03107); assay: L2 protein ELISA, undiluted hybridoma supernatant
[6] = target: HPV16 L2 in HPV16 L1/L2 capsids (pseudovirions, L1/L2 VLPs) (human papillomavirus 16 (HPV16)) (UniProt P03107); assay: HPV16 L1/L2 VLP ELISA, undiluted hybridoma supernatant

Work on RG-1 (antibody) yielded an HPV16 neutralization (undiluted hybridoma supernatant titrated) (titer (1:x dilution)) [1] of 1280, a neutralization of HPV16 pseudovirions, RG-1 ascites (titer (1:x dilution)) [2] of 205000 and a neutralization of HPV18 pseudovirions, RG-1 ascites (titer (1:x dilution)) [3] of 25600. For the same substance, the ELISA titer (titer (1:x dilution)) [4] was 1.02e+06, the OD405 L2 ELISA [5] was 1.3 OD405 and the OD405 L1/L2 ELISA [6] was 0.9 OD405.
